{"source": "patent US20090011981A1", "about": "“Novel Inhibitors of Angiogenesis” (K.U. LEUVEN RESEARCH & DEVELOPMENT, priority 2004, published 2009)", "key": {"[1]": {"system": "bFGF-induced angiogenesis (rat cornea neovascularization)", "test": "Rat corneal micropocket assay for angiogenesis", "type": "in vivo", "protocol": "In vivo angiogenesis was assessed using the rat cornea micropocket assay as previously described [Addison et al. cited above]. Briefly, reagents were diluted in PBS plus 0.25% serum albumin to their final concentration per pellet of Hydron casting solution (Hydro Med Sciences, New Brunswick N.J.). 5 μl aliquots were pipetted onto the flat surface of a sterile polypropylene specimen container and were allowed to polymerize overnight under UV light in a laminar flow hood. Prior to implantation, the pellets were rehydrated with normal saline. Animals were given 150 mg/kg ketamine and 250 μg/kg atropine, and the corneas were anesthetized with 0.5% proparacaine hydrochloride ophthalmic solution followed by implantation of the Hydron pellet into an intracorneal pocket (1-2 mm from the limbus). Six days after implantation, animals received heparin (1000 U) and ketamine (150 mg/kg) i.p. 30 min prior to sacrifice, followed by perfusion with 10 ml of colloidal carbon via the left ventricle. Corneas were then harvested and photographed. […] Sustained directional ingrowth of capillary sprouts and hairpin loops toward the implant were considered positive neovascularization responses."}, "[2]": {"system": "Human lung microvascular endothelial cells (HMVEC-L)", "test": "Endothelial cell chemotaxis assay (bFGF- or CXCL8-induced HMVEC migration)", "type": "cell-based", "conditions": "for inhibition of CXCL8-induced HMVEC chemotaxis: CXCL8 80 ng/ml; for inhibition of the migration of the cells: at a concentration of 50 ng/ml; for inhibition of bFGF-induced HMVEC chemotaxis: bFGF 50 ng/ml; for migration of HMVEC toward bFGF or CXCL8 (FIG. 4 Panel C): test protein 50 ng/ml, bFGF 50 ng/ml or CXCL8 80 ng/ml", "protocol": "Human lung microvascular endothelial cells (HMVEC-L) were obtained from Clonetics (Walkersville, Md.), and were cultured following the manufacturer's instructions in EBM-2 medium supplemented with the EGM-2-MV “bulletkit” containing FCS, ascorbic acid, hydrocortisone, fibroblast growth factor (FGF), vascular endothelial growth factor (VEGF), insulin-like growth factor I (IGF-I) and epidermal growth factor (EGF). Endothelial cell chemotaxis assays were performed as previously described [Addison et al. (2002) J Immunol 165, 5269-5277]. Cells were harvested by trypsinization, resuspended in EBM-2 medium without growth factors with 2% FCS added. An aliquot of 160 μl containing 5×10^5 cells/ml was added to each of the lower wells of a 12-well chemotaxis chamber (Neuro Probe Inc., Cabin John Md.). The chambers were assembled (by placing 0.1% gelatin coated 5 μm pore size filters over the lower wells, followed by a gasket and the upper chamber) and incubated at 37° C. in a CO2 incubator for 2 h in an inverted position. The chambers were then turned upright, and 100 μl aliquots of sample dilutions were added to the upper wells of the chamber. As endothelial cell chemoattractants CXCL8 and bFGF (both from Peprotech) were used. The chambers were placed in a 37° C. CO2 incubator for 2 h at which time the filters were removed, and subjected to Diff-Quik staining. The total number of migrated cells was counted in 15 separate fields of view under 400× power."}, "murine melanoma cells": {"system": "murine melanoma cells", "conditions": "systemic treatment, mice injected i.v. with murine melanoma cells; cited from earlier work"}, "[3]": {"test": "Heparin-Sepharose affinity chromatography (heparin affinity)", "type": "binding", "conditions": "for salt concentration at elution from heparin-Sepharose column: linear NaCl gradient 0.05-2 M, pH 7.4", "protocol": "For large scale PF4 production, outdated platelets (Red Cross blood transfusion centre, Belgium) were stimulated with 1 U/ml thrombin (Sigma, St. Louis, Mo.) for 2 h at 37° C. in PBS. The conditioned medium was subsequently purified by a purification procedure previously described [Struyf et al (2003), cited above, Van Damme et al. (1992) J Exp Med 176, 59-65; Struyf et al. (2000) in Balkwill, F. ed. Cytokine molecular biology, a practical approach. Oxford, UK, Oxford University Press, pp 73-88]. The conditioned media (1 to 5 liters) were first concentrated and partially purified by adsorption to silica (“Silica Matrex”; pore size 100 A, particle size 35-70 μm; Millipore, Billerica, Mass.; 10 g/l conditioned medium). After 2 h of magnetical stirring at 4° C., the silicic acid was sedimented by centrifugation and subsequently washed once with PBS and once with PBS containing 1 M NaCl pH 7.4. Elution of proteins from the silica matrix was done by magnetically stirring three consecutive times with 100 ml of PBS containing 1.4 M NaCl and 50% ethylene glycol pH 7.4 during 30 min at 4° C. A second elution with 0.3 M glycine/HCl pH 2.0 buffer (2×100 ml) was performed to improve recovery of chemokines. Subsequently, the pooled eluates (500 ml) were dialyzed against equilibration/loading buffer (50 mM Tris/HCl-50 mM NaCl, pH 7.4) before fractionation by heparin-Sepharose chromatography (Amersham Pharmacia Biotech, Uppsala, Sweden). Proteins were eluted from the column in a linear NaCl gradient (0.05-2 M NaCl in the loading buffer; 5 ml-fractions). For all fractions, the protein concentration was determined by a Coomassie blue G-250 binding assay using the Bio-Rad commercial kit (Bio-Rad Laboratories, Hercules, Calif.). […] Purified fractions were analyzed by SDS-PAGE under reducing conditions to determine purity. […]"}, "B16 melanoma tumors": {"system": "B16 melanoma tumors", "test": "Intratumoral injection of B16 melanoma tumors", "type": "in vivo, athymic nu/nu mice", "conditions": "1 μg recombinant human PF4var1, 6 intratumoral injections over 2 weeks, B16 melanoma in nu/nu mice", "protocol": "Animal experiments were approved by the local animal ethics committee (University of Leuven), and conducted in conformity with the Belgian and European guidelines for the protection of animals used for scientific purposes. Experiments were performed with 6 to 8 weeks old female athymic nu/nu mice (NMRI background) kept in a specific pathogen-free environment (Elevage Janvier, Le Genest Saint Isle, France). Two consecutive experiments were performed, the first comprising 20 mice, the second 18 mice. B16 melanoma cells in log phase (2×10^6 cells resuspended in 200 μl of PBS) were injected subcutaneously on day 1 in the right dorsal flank. Animals were injected at the tumor site with 50 μl of test sample, i.e. endotoxin-free saline (0.9% NaCl, Baxter, Lessines, Belgium), 5 pg of natural human PF4 or 1 μg of recombinant human PF4var1 in saline. Treatment started on day 3, in total 6 intratumoral injections were administered three times a week over a period of 2 weeks. All animals were observed three times a week, the tumor dimensions were measured with calipers and tumor size was calculated (tumor volume=4/3Πab^2; a is the smallest diameter/2 and b is the largest diameter/2 in millimeters). At the end of the experiments tumor size was calculated more precisely after dissection of the tumor using the formula 4/3Πabc (a, b and c width/2, length/2 and depth/2, respectively). […]"}, "[4]": {"conditions": "50 ng of the cytokine alone, six days after implantation"}, "[5]": {"conditions": "50 ng combined with bFGF (50 ng)"}}, "note": "Several values for one entry are separate records, joined by “and”; a condition that tells them apart may be missing. Equal values may be shown once.", "data": [{"molecule": "bFGF: Fibroblast growth factor used as endothelial cell chemoattractant and angiogenesis inducer (Peprotech) [reference compound]", "values": [{"measurement": "No of neg pellets (no neovascularization / total pellets implanted)", "setting": "[1]; [4]", "value": "0/25"}, {"measurement": "No of pos pellets (angiogenic response / total pellets implanted)", "setting": "[1]; [4]", "value": "25/25"}]}, {"molecule": "PF4: Platelet Factor 4, CXC chemokine; authentic natural human PF4 purified from platelets as comparator (protein) EAEEDGDLQCLCVKTTSQVRPRHITSLEVIKAGPHCPTAQLIATLKNGRKICLDLQAPLYKKIIKKLLES", "values": [{"measurement": "inhibition of CXCL8-induced HMVEC chemotaxis", "setting": "[2]; test protein 300 ng/ml", "value": "failed to inhibit"}, {"measurement": "inhibition of the migration of the cells", "setting": "[2]", "value": "~80", "unit": "%"}, {"measurement": "inhibition of migration of HMVEC", "setting": "[2]; at concentrations as high as 300 ng/ml, toward bFGF or CXCL8", "value": "practically no inhibition"}, {"measurement": "inhibition of bFGF-induced HMVEC chemotaxis", "setting": "[2]; test protein 300 ng/ml", "value": "failed to inhibit"}, {"measurement": "migration of HMVEC toward bFGF or CXCL8 (FIG. 4 Panel C)", "setting": "[2]", "value": "reduce migration"}, {"measurement": "dose for optimal inhibition of metastases or lung weight", "setting": "murine melanoma cells", "value": "> 5 mg PF4 per kg of body weight"}, {"measurement": "% inhibition of bFGF-induced angiogenesis", "setting": "[1]; [5]", "value": 23, "unit": "%"}, {"measurement": "No of neg pellets (no neovascularization / total pellets implanted)", "setting": "[1]; [5]", "value": "5 of 22 and 5/22"}, {"measurement": "No of pos pellets (angiogenic response / total pellets implanted)", "setting": "[1]; [5]", "value": "17/22"}, {"measurement": "No of neg pellets (no neovascularization / total pellets implanted)", "setting": "[1]; [4]", "value": "17/22"}, {"measurement": "No of pos pellets (angiogenic response / total pellets implanted)", "setting": "[1]; [4]", "value": "5/22"}, {"measurement": "salt concentration at elution from heparin-Sepharose column", "setting": "[3]", "value": "1.6-1.8 M NaCl"}]}, {"molecule": "PF4var1: natural and recombinant versions of the human natural variant of the PF4 protein; 70 amino acid mature form, SEQ ID NO: 1 (protein, listed as Homo sapiens, mat_peptide (1)..(70) PFvar1) EAEEDGDLQCLCVKTTSQVRPRHITSLEVIKAGPHCPTAQLIATLKNGRKICLDLQALLYKKIIKEHLES", "values": [{"measurement": "inhibition of CXCL8-induced HMVEC chemotaxis", "setting": "[2]; test protein 10-100 ng/ml", "value": "completely blocked"}, {"measurement": "potency on angiogenesis relative to PF4", "setting": "[2]; PF4var1 versus PF4", "value": 100, "unit": "fold"}, {"measurement": "inhibition of the migration of the cells", "setting": "[2]", "value": "~100", "unit": "%"}, {"measurement": "inhibition of bFGF-induced HMVEC chemotaxis", "setting": "[2]; test protein 10-100 ng/ml", "value": "completely blocked"}, {"measurement": "concentration giving an inhibition of 50% of the migration of HMVEC", "setting": "[2]; chemotaxis of HMVEC toward bFGF or CXCL8", "value": "around 2.5 ng/ml"}, {"measurement": "migration of HMVEC toward bFGF or CXCL8 (FIG. 4 Panel C)", "setting": "[2]", "value": "reduce migration"}, {"measurement": "% inhibition of bFGF-induced angiogenesis", "setting": "[1]; [5]", "value": 73, "unit": "%"}, {"measurement": "No of neg pellets (no neovascularization / total pellets implanted)", "setting": "[1]; [5]", "value": "16 of 22 and 16/22"}, {"measurement": "No of pos pellets (angiogenic response / total pellets implanted)", "setting": "[1]; [5]", "value": "6/22"}, {"measurement": "No of neg pellets (no neovascularization / total pellets implanted)", "setting": "[1]; [4]", "value": "21/22"}, {"measurement": "No of pos pellets (angiogenic response / total pellets implanted)", "setting": "[1]; [4]", "value": "1/22"}, {"measurement": "heparin binding affinity compared with PF4", "setting": "[3]; based on elution at lower salt concentrations from heparin-Sepharose", "value": "lower affinity than PF4"}, {"measurement": "salt concentration at elution from heparin-Sepharose column", "setting": "[3]", "value": "1-1.4 M NaCl"}, {"measurement": "tumor growth", "setting": "B16 melanoma tumors", "value": "capable of reducing tumor growth"}]}]}
